B1: TPR t1 (parent)
chain: GACCAAUCUGCCCUCAGAGCUCGAGAACAUCUUCGGAUGCAGAGGAGGCAGGCUUCGGUGGCGCGAUAGCGCCAACGUCCUCAACCUCCAAUGCAUCCCACCACAUGAUGAUGCCUGAAGAGCCUUGGUUUUUUG

Variants of: B1
Assay: polymerase ribozyme fitness, log enrichment relative to wild type (log ratio); higher = more active; in vitro selection for triplet polymerase activity
Procedure, shortened: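 Only genotypes with ≥10 input reads and ≥1 read per output were kept after Illumina sequencing of input and output libraries. These libraries were PCR-built, transcribed mutants of each subunit of a heterodimeric triplet polymerase ribozyme, each put through one triplicate in vitro selection round with frozen incubation at −7 °C, gel excision of extended constructs, streptavidin-bead capture and RT-PCR. Fitness is a logarithmic ratio of genotype enrichment to wild-type enrichment, from inverse-variance-weighted replicate averages, with the logarithm in base 2.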

Variant | polymerase ribozyme fitness (log ratio)
G57A C94G | -2.36
C56U G113A | -0.858
U59A G61U | -0.465
C56U C79A C101U | -1.23
C56U G117U | -1.63
U59A C88G | -1.44
C56U G110C | -3.43
C56U C89U | -0.281
U59C A103U U112C G128U U132A U133A | -5.05
C56U G69C G71A C79A G113U | -6.83
G58C A111G | 0.509
C56U G69U A90C C94A C104G G113U G122A | -6.84
G58U G69U C97A G120C | -1.35
G58C U59C A83C U106A | -0.577
G58A C88U C94U G127C G135U | -3.94
G58C A83U C85A U112G U129G | -0.79
G57A C123U | -0.636
C56U G65C | -5.42
G58A G61A C85A G113A | 0.19
G57A C114U | -3.27
C56U C94A A105G | -3.08
G57U A75G A83C G117A | -2
U59A G77A A83C U92A C102U U109C C114U | -6.72
G57C C82G A95G A111U C123U | -5.52

Variant | polymerase ribozyme fitness (log ratio)
C56U G69C C89U C123U | -7.26
G58C G60C A111U | -3.12
G57A G61A A90G C124A | 0.849
C56U C98A | -5.17
G57U C82G G110U | -2.25
G57U G93A | 0.0639
C56U C99A | -6.27
C56U C99U | -3.34
U59A C101U C124A | 1.59
G58A C76U | -0.743
G57A C70A | -3.43
G57A U81A C104U | -1.98
C56U C73U C76U | -2.54
G58A G77U U81A U87C C102A | -4.48
U59A C101A C114A | -2.95
C56U U125A | -0.748
C56U U109C | -2.15
G57U C72U A83U A111U | -4.12
U59A G117A | -1.36
C56U C76A G93A G120C | -4.53
G57U C79A G93C U112G | -2.9
G57A G63U | -2.43
G58A C73A A84G A103G C124G | -7.11
G57C C62G C104A | -5.81

Variant | polymerase ribozyme fitness (log ratio)
C56U G61U C82A A91G C114U | -6.55
C56U U59A C101U G122A | -1.81
G58U C114U | -2.25
U59A C102U A103C | -5.53
G57C C73A G117C | -4.45
C56U C89A U92C G117U | -5.23
C56U G69A | -3.53
C56U G69C | -4.69
C56U U81G C97U | -1.35
G58C A111C U112C | -0.0453
C56U G61A U112G A121U | -6.37
G58C C70U | -0.846
U59A C123G | 2
G57C C89A G117U A118G U130C G135U | -2.49
G57U G63C | -1.73
G57A C82U A105G G120U | -4.95
C56U G69U C82U A84U | -3
G58A G135U | -1.49
C56U G128U | -1.65
G58A G60C G120C | -3.34
G57C A90G G113U C115A | -5.11
U59A C70U C102A A105U A111G G128A U129A | -5.83
U59A C72A U109A | -7.12
C56U U131A | -0.176

Variant | polymerase ribozyme fitness (log ratio)
G58A U78G | 0.00664
G58U G71A G77A | 0.0877
G57A C73U U78A C99U G128C | -6.66
G58C C70U G110C A121U | -5.63
C56U C115U | -0.661
G58C C73A C98G | -6.44
C56U U78C U87A | 0.212
C56U C97U U106A G127U | -0.714
G57U U78A C80U | -0.707
U59A G77U U130G | -1.24
G58C C76U C104A G113U A119C | -6.29
G57U A119G | 1.22
C56U G61C | -6.29
G58U A119G | 0.849
C56U G110U C114U U125A | -3.23
U59A C85A C94A G120A | -0.6
G58U C98U U125A | -1.35
G58A G61A G93A G113C U125C G135A | -2.01
G57A G63U A75U U133A | -1.97
C56U C85G A91U C101U U106C | -4.05
C56U G60A C98U G117C C124U U130A | -6.06
G58A C123G | 2.11
G58C A118U G127C | -1.14
G58C A90U U109A C114U | -5.55

Variant | polymerase ribozyme fitness (log ratio)
C56U G57C C70A U92A | -6.45
C56U G57C G69C | -0.611
G57A U78C U87C C104U G113A | -1.61
G58C A91U | -2.24
C56U U116G | -2.23
C56U U116A | -2.51
G57U U78A G117A G135U | -2.21
G58U G63A C82A C97U G110A | -4.64
G57U C82G A95G A111U C123U | -5.66
G57A U96G A105U C123G G127A | -5.35
G57A G69A C76G | -3.53
G57U C94G | -1.04
C56U C76G | -2.08
G57U G60C | -3.3
G58C U96A C97A C104A G120U G128C | -7.29
G57U U116A | -3.39
C56U C80A | -1.98
C56U C97A | -4.36
G57C C79U G110A | -3.76
G58A C85U | -1.88
U59A C70U | -0.265
C56U C114U | -1.71
G57C C82G C97U | -1.07
C56U C104A | -1.58

Variant | polymerase ribozyme fitness (log ratio)
G57C U59A | -0.128
G58A G61A G120A | 0.579
C56U G69U C79U G120A U130G | -1.59
U59A A95U G128A | -2.84
U59C A84C | -0.231
G58A U81C C85G | -2.26
C56U C123A U126A | 0.177
G57A A100U | -1.61
G57U G110A G127A | -2.29
C56U C102A | -1.94
C56U C102U | -2.28
G57C C85G C114U A119C | -6.42
C56U U92C U106A | -0.561
G57U G60A C114A U129A | -3.12
C56U G65A A83U | -6.42
U59C A66G | -1.47
U59C A66U | -1.57
G57C G69C U131A | -0.151
C56U C85G | -2.65
G58C U126C | -1.22
C56U G69A G113U C123G U130G | -6.22
G57U A105G G113A | -4.1
G58U G71A C79A A103G C115U | -7.13
U59A G61U A84U | -0.153

Variant | polymerase ribozyme fitness (log ratio)
C56U G93C | -0.768
C56U G93A | -0.279
C56U U96C C99U | -3.29
G57U | -0.128
G57A | -0.653
G57C | -0.176
G58A C86U | -0.881
C56U C73G | -2
U59A C62A A100C U106A C124G | -0.96
C56U C79G C102U C104U | -4.64
U59A U87G | -0.319
U59A U87A | -0.298
C56U C97U A108G U116C U133G | -3.98
G58A U92A | -2.93
G57A G69C | -1.82
C56U C88A G127C | -1.72
C56U U78G G93U G113A | -2.45
G58C C73U C86G | -0.297
G58A G69A | -2.24
C56U C82A U106G G117U | -4.65
U59A G77U | -2.02
G57U C88U A108G | -3.61
G58C A118G G120C | -0.431
